Experimental data taken from US11155602B2, “Polypeptides targeting HIV fusion” (priority 2015, dated 2021).
Residue numbers refer to the chain shown, from its start.

B1: 137 (protein)
chain: MGVSDVPRDLEVVAATPTSLLISWHDGIGEERYYRITYGETGGNSPVQEFTVPMDDITATISGLKPGVDYTITVYAVTVGDVISVLHEPISINYRTEIDKPSQHHHHHH
modifications: Adnectin
B2: 324 (protein)
chain: MGHHHHHHGGSVSDVPRDLEVVAATPTSLLISWEYKVHPYRYYRITYGETGGNSPVQEFTVPSVLSTATISGLKPGVDYTITVYAVTYGDDSNPISINYRTEID
modifications: Adnectin
B3: 327 (protein)
chain: B2 chain with H38T, P39Y, Y40E, N93A
modifications: Adnectin
B4: 355 (protein)
chain: B2 chain with H38S, P39T, N93A
modifications: Adnectin
B5: 349 (protein)
chain: B2 chain with H38Y, P39A, N93A
modifications: Adnectin
B6: 345 (protein)
chain: B2 chain with N93R
modifications: Adnectin
B7: 337 (protein)
chain: B2 chain with N93Y
modifications: Adnectin
B8: 339 (protein)
chain: B2 chain with H38S, P39R, Y40W, N93A
modifications: Adnectin
B9: 341 (protein)
chain: B2 chain with E58S, N93A
modifications: Adnectin
B10: 346 (protein)
chain: B2 chain with N93A, N98Q
modifications: Adnectin
B11: 354 (protein)
chain: B2 chain with H38S, P39A, Y40W, N93A
modifications: Adnectin
B12: 326 (protein)
chain: B2 chain with H38S, P39H, Y40R, N93A
modifications: Adnectin
B13: 359 (protein)
chain: B2 chain with H38S, P39A, N93A
modifications: Adnectin
B14: 351 (protein)
chain: B2 chain with E58A, D90K, N93A
modifications: Adnectin
B15: 333 (protein)
chain: B2 chain with H38S, Y40W, N93A
modifications: Adnectin
B16: 352 (protein)
chain: B2 chain with D91L, N93A
modifications: Adnectin
B17: 343 (protein)
chain: B2 chain with D91H, N93A
modifications: Adnectin
B18: 356 (protein)
chain: B2 chain with T69E, I70L, N93A
modifications: Adnectin
B19: 360 (protein)
chain: B2 chain with H38T, P39G, N93A
modifications: Adnectin
B20: 344 (protein)
chain: B2 chain with N93E
modifications: Adnectin
B21: 332 (protein)
chain: B2 chain with H38N, P39R, Y40W, N93A
modifications: Adnectin
B22: 135 (protein)
chain: B2 chain with E34K, K36N, H38N, P39A, D90V, D91H, N93S
modifications: Adnectin
B23: 336 (protein)
chain: B2 chain with N93D
modifications: Adnectin
B24: 330 (protein)
chain: B2 chain with N93P
modifications: Adnectin
B25: 348 (protein)
chain: B2 chain with H38S, P39T, Y40W, N93A
modifications: Adnectin
B26: 353 (protein)
chain: B2 chain with N93G
modifications: Adnectin
B27: 342 (protein)
chain: B2 chain with D90I, N93A
modifications: Adnectin
B28: 358 (protein)
chain: B2 chain with N93T
modifications: Adnectin
B29: 335 (protein)
chain: B2 chain with D91E, N93A
modifications: Adnectin
B30: 329 (protein)
chain: B2 chain with D91V, N93A
modifications: Adnectin
B31: 334 (protein)
chain: B2 chain with H38T, P39Y, Y40R, N93A
modifications: Adnectin
B32: 325 (protein)
chain: B2 chain with H38N, P39H, Y40D, N93A
modifications: Adnectin
B33: 350 (protein)
chain: B2 chain with E58T, N93A
modifications: Adnectin
B34: 347 (protein)
chain: B2 chain with H38N, P39Y, Y40R, N93A
modifications: Adnectin
B35: 338 (protein)
chain: B2 chain with H38N, P39R, N93A
modifications: Adnectin
B36: 357 (protein)
chain: B2 chain with D91L, N93A
modifications: Adnectin
B37: 138 (protein)
chain: MGVSDVPRDLEVVAATPTSLLISWHYPFEGYVTYYRITYGETGGNSHVQEFTVPVGYTTATISGLKPGVDYTITVYAVTSSKGYVYFPISINYRTEIDKPSQHHHHHH
modifications: Adnectin
B38: 136 (protein)
chain: MGHHHHHHGGSVSDVPRDLEVVAATPTSLLISWDAPAVTVEQYYIGYYVEAEPSSYQYFFVPGSKSTATISGLKPGVDYAIFVNAVTASGRGPEYSLPISINYRTEGS
modifications: Adnectin

test system: NL-Rluc virus; experiment: Combinectin potency assay: antiviral EC50, NL-Rluc virus in MT-2 cells, luciferase readout; type: cell-based, HIV-1; details: Anti-N17 Adnectin, Table 3
How it was run: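 Peptides, serially diluted threefold over 11 points in triplicate, were exposed for 4–5 days to MT-2 cells preinfected 1 h with NL-Rluc virus (MOI 0.01). Replication read out as Renilla luciferase signal, with EC50 derived against untreated infected controls.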

| Molecule | EC50 [nM] |
| --- | --- |
| B1 | 80 |
| B2 | 487 |
| B3 | > 1000 |
| B4 | > 1000 |
| B5 | > 1000 |
| B6 | > 1000 |
| B7 | > 1000 |
| B8 | > 1000 |
| B9 | > 1000 |
| B10 | 83 |
| B11 | > 1000 |
| B12 | > 1000 |
| B13 | > 1000 |
| B14 | 215 |
| B15 | > 1000 |
| B16 | 77 |
| B17 | 122 |
| B18 | 31 |
| B19 | > 1000 |

| Molecule | EC50 [nM] |
| --- | --- |
| B20 | > 1000 |
| B21 | > 1000 |
| B22 | > 1000 |
| B23 | 171 |
| B24 | 99 |
| B25 | > 1000 |
| B26 | 19 |
| B27 | > 1000 |
| B28 | > 1000 |
| B29 | 112 |
| B30 | 102 |
| B31 | > 1000 |
| B32 | > 1000 |
| B33 | 191 |
| B34 | > 1000 |
| B35 | > 1000 |
| B36 | 178 |
| B37 | 3300 |
| B38 | 5 |
